Results on 2 substances are retold here after US20020123614A1.

Assay [1] has as its target isolated mutant K287C/K294C αL I-domain (V130-A338) expressed on K562 cells by the PDGFR transmembrane domain (human) (UniProt P20701). Nature of the assay: flow cytometry.
Assay [2] concerns the target LFA-1 high affinity open mutant K287C/K294C (αL K287C/K294C with β2) (human) (UniProt P05107). In words: 293T cell adhesion to immobilized ICAM-1.
For assay [3], the target named is wild-type LFA-1 (αL/β2 complex) (human) (UniProt P05107). Nature of the assay: 293T cell adhesion to immobilized ICAM-1.
Assay [4] deals with LFA-1 high affinity open mutant K287C/K294C (αL K287C/K294C with β2) (human) (UniProt P05107). In words: flow cytometry on transfectants. On the technique in general: A flow cytometer gives signals particle by particle.
Assay [5] concerns the target wild-type LFA-1 (αL/β2 complex) (human) (UniProt P05107). Nature of the assay: cell adhesion to immobilized ICAM-1.
The target in assay [6] is LFA-1 high affinity open mutant K287C/K294C (αL K287C/K294C with β2) (human) (UniProt P05107). Nature of the assay: K562 cell adhesion to immobilized ICAM-1.
The target of assay [7] is wild-type LFA-1 (αL/β2 complex) (human) (UniProt P05107). In words: K562 (+CBRLFA-1/2) cell adhesion to immobilized ICAM-1.
In assay [8] the target is LFA-1 low affinity closed mutant L289C/K294C (αL L289C/K294C with β2) (human) (UniProt P05107). Nature of the assay: flow cytometry, K562; normalised to TS2/4.
Assay [9] has as its target LFA-1 high affinity open mutant K287C/K294C (αL K287C/K294C with β2) (human) (UniProt P05107). In words: flow cytometry, K562; normalised to TS2/4.
Assay [10] deals with LFA-1 single cysteine substitution mutant K294C (human) (UniProt P05107). Nature of the assay: flow cytometry, 293T; normalised to TS2/4.
Assay [11] addresses LFA-1 low affinity closed mutant L289C/K294C (αL L289C/K294C with β2) (human) (UniProt P05107). In words: flow cytometry, 293T; normalised to TS2/4.
The target of assay [12] is LFA-1 high affinity open mutant K287C/K294C (αL K287C/K294C with β2) (human) (UniProt P05107). Nature of the assay: flow cytometry, 293T; normalised to TS2/4.
Assay [13] addresses LFA-1 single cysteine substitution mutant L289C (human) (UniProt P05107). Nature of the assay: flow cytometry, 293T; normalised to TS2/4.
Assay [14] concerns the target LFA-1 single cysteine substitution mutant K287C (human) (UniProt P05107). In words: flow cytometry, 293T; normalised to TS2/4.
The target of assay [15] is LFA-1 high affinity open mutant K287C/K294C (αL K287C/K294C with β2) (human) (UniProt P05107). Nature of the assay: flow cytometry, K562; normalised to TS1/22.

isolated mutant K287C/K294C αL I-domain (V130-A338) expressed on K562 cells by the PDGFR transmembrane domain (human), sequence (P20701 155-363 K312C/K319C limits assumed, form in doubt): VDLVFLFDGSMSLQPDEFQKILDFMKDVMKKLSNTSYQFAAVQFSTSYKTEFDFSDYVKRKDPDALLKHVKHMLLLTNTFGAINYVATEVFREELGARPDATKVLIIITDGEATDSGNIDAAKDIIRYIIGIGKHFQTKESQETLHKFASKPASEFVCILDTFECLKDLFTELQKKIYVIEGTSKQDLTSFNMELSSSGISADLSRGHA

As a reminder, the % inhibition is the percentage by which the read-out fell short of the control. monoclonal antibody CBRLFA-1/1 yielded a % of binding to the wild-type I-domain in assay [1] of 80%. Also, the % inhibition is 9.03% in [2]; 92.5% in assay [3]; more than 90% in [5]; 2.85% in [6]; 94.7% in [7]. The % of wild-type binding in [4] was 40 to 50%. The % wild-type binding in assay [8] was 118%; in [9] it was 55.5%; in assay [10] it was 89.4%; in assay [11], 95.9%; in assay [12] it was 43.6%; in [13], 93.3%. In addition, the % wild-type binding in assay [14] was found to be 86.1%.
On to monoclonal antibody CBRLFA-1/9, for which the % wild-type binding in assay [15] turned out to be 84.7%. Further, the % inhibition in assay [6] was 3.6%; in assay [7] it was 97.8%.
